System: HEK293FT cells transfected with TF library
Assay: Screening of TF condensates based on fluorescent puncta
Format: cell-based
Settings: Figure 1B numerical data; TF library screen, one value per transcriptional factor
In short: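 Each TF construct was introduced into HEK293FT cells using PEI at 4.8 μg/ml; glucose deprivation versus normal medium lasted 12 h. Automated confocal-style imaging of tagged TF staining, 50 fields per well, gave the puncta data.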

| Molecule | Z score of condensed fraction |
| --- | --- |
| THAP10 (protein, UniProt Q9P2Z0 1-257, looked up) THAP domain-containing …: MPARCVAAHCGNTTKSGKSLFRFPKDRAVRLLWDRFVRGCRADWYGGNDRSVICSDHFAPACFDVSSVIQKNLRFSQRLRLVAGAVPTLHRVPAPAPKRGEEGDQAGRLDTRGELQAARHSEAAPGPVSCTRPRAGKQAAASQITCENELVQTQPHADNPSNTVTSVPTHCEEGPVHKSTQISLKRPRHRSVGIQAKVKAFGKRLCNATTQTEELWSRTSSLFDIYSSDSETDTDWDIKSEQSDLSYMAVQVKEETC | 1.236 |
| THAP8 (protein, UniProt Q8NA92 1-274, looked up) THAP domain-containing …: MPKYCRAPNCSNTAGRLGADNRPVSFYKFPLKDGPRLQAWLQHMGCEHWVPSCHQHLCSEHFTPSCFQWRWGVRYLRPDAVPSIFSRGPPAKSQRRTRSTQKPVSPPPPLQKNTPLPQSPAIPVSGPVRLVVLGPTSGSPKTVATMLLTPLAPAPTPERSQPEVPAQQAQTGLGPVLGALQRRVRRLQRCQERHQAQLQALERLAQQLHGESLLARARRGLQRLTTAQTLGPEESQTFTIICGGPDIAMVLAQDPAPATVDAKPELLDTRIPSA | 1.115 |
| THAP6 (protein, UniProt Q8TBB0 1-222, looked up) THAP domain-containing …: MVKCCSAIGCASRCLPNSKLKGLTFHVFPTDENIKRKWVLAMKRLDVNAAGIWEPKKGDVLCSRHFKKTDFDRSAPNIKLKPGVIPSIFDSPYHLQGKREKLHCRKNFTLKTVPATNYNHHLVGASSCIEEFQSQFIFEHSYSVMDSPKKLKHKLDHVIGELEDTKESLRNVLDREKRFQKSLRKTIRELKDECLISQETANRLDTFCWDCCQESIEQDYIS | 2.571 |
| THAP1 (protein, UniProt Q9NVV9 1-213, looked up) THAP domain-containing …: MVQSCSAYGCKNRYDKDKPVSFHKFPLTRPSLCKEWEAAVRRKNFKPTKYSSICSEHFTPDCFKRECNNKLLKENAVPTIFLCTEPHDKKEDLLEPQEQLPPPPLPPPVSQVDAAIGLLMPPLQTPVNLSVFCDHNYTVEDTMHQRKRIHQLEQQVEKLRKKLKTAQQRCRRQERQLEKLKEVVHFQKEKDDVSERGYVILPNDYFEIVEVPA | -0.6542 |
| TFEC (protein, UniProt O14948 1-347, looked up) Transcription factor EC: MTLDHQIINPTLKWSQPAVPSGGPLVQHAHTTLDSDAGLTENPLTKLLAIGKEDDNAQWHMEDVIEDIIGMESSFKEEGADSPLLMQRTLSGSILDVYSGEQGISPINMGLTSASCPSSLPMKREITETDTRALAKERQKKDNHNLIERRRRYNINYRIKELGTLIPKSNDPDMRWNKGTILKASVEYIKWLQKEQQRARELEHRQKKLEQANRRLLLRIQELEIQARTHGLPTLASLGTVDLGAHVTKQQSHPEQNSVDYCQQLTVSQGPSPELCDQAIAFSDPLSYFTDLSFSAALKEEQRLDGMLLDDTISPFGTDPLLSATSPAVSKESSRRSSFSSDDGDEL | 1.616 |
| BLZF1 (protein, UniProt Q9H2G9 1-400, looked up) Golgin-45: MTTKNLETKVTVTSSPIRGAGDGMETEEPPKSVEVTSGVQSRKHHSLQSPWKKAVPSESPGVLQLGKMLTEKAMEVKAVRILVPKAAITHDIPNKNTKVKSLGHHKGEFLGQSEGVIEPNKELSEVKNVLEKLKNSERRLLQDKEGLSNQLRVQTEVNRELKKLLVASVGDDLQYHFERLAREKNQLILENEALGRNTAQLSEQLERMSIQCDVWRSKFLASRVMADELTNSRAALQRQNRDAHGAIQDLLSEREQFRQEMIATQKLLEELLVSLQWGREQTYSPSVQPHSTAELALTNHKLAKAVNSHLLGNVGINNQKKIPSTVEFCSTPAEKMAETVLRILDPVTCKESSPDNPFFESSPTTLLATKKNIGRFHPYTRYENITFNCCNHCRGELIAL | -1.161 |
| TGIF2LY (protein, UniProt Q8IUE0 1-185, looked up) Homeobox protein TGIF2LY: MEAAADGPAETQSPVEKDSPAKTQSPAQDTSIMSRNNADTGRVLALPEHKKKRKGNLPAESVKILRDWMYKHRFKAYPSEEEKQMLSEKTNLSLLRISNWFINARRRILPDMLQQRRNDPIIGHKTGKDAHATHLQSTEASVPAKSGPVVQTMYKACPCGPCQRARCQERSNQIRSRPLARSSPE | 1.271 |
| THRB (protein, UniProt P10828 1-461, looked up) Thyroid hormone receptor beta: MTPNSMTENGLTAWDKPKHCPDREHDWKLVGMSEACLHRKSHSERRSTLKNEQSSPHLIQTTWTSSIFHLDHDDVNDQSVSSAQTFQTEEKKCKGYIPSYLDKDELCVVCGDKATGYHYRCITCEGCKGFFRRTIQKNLHPSYSCKYEGKCVIDKVTRNQCQECRFKKCIYVGMATDLVLDDSKRLAKRKLIEENREKRRREELQKSIGHKPEPTDEEWELIKTVTEAHVATNAQGSHWKQKRKFLPEDIGQAPIVNAPEGGKVDLEAFSHFTKIITPAITRVVDFAKKLPMFCELPCEDQIILLKGCCMEIMSLRAAVRYDPESETLTLNGEMAVTRGQLKNGGLGVVSDAIFDLGMSLSSFNLDDTEVALLQAVLLMSSDRPGLACVERIEKYQDSFLLAFEHYINYRKHHVTHFWPKLLMKVTDLRMIGACHASRFLHMKVECPTELFPPLFLEVFED | -0.3414 |
| THAP4 (protein, UniProt Q8WY91 1-577, looked up) Peroxynitrite isomerase THAP4: MVICCAAVNCSNRQGKGEKRAVSFHRFPLKDSKRLIQWLKAVQRDNWTPTKYSFLCSEHFTKDSFSKRLEDQHRLLKPTAVPSIFHLTEKKRGAGGHGRTRRKDASKATGGVRGHSSAATSRGAAGWSPSSSGNPMAKPESRRLKQAALQGEATPRAAQEAASQEQAQQALERTPGDGLATMVAGSQGKAEASATDAGDESATSSIEGGVTDKSGISMDDFTPPGSGACKFIGSLHSYSFSSKHTRERPSVPREPIDRKRLKKDVEPSCSGSSLGPDKGLAQSPPSSSLTATPQKPSQSPSAPPADVTPKPATEAVQSEHSDASPMSINEVILSASGACKLIDSLHSYCFSSRQNKSQVCCLREQVEKKNGELKSLRQRVSRSDSQVRKLQEKLDELRRVSVPYPSSLLSPSREPPKMNPVVEPLSWMLGTWLSDPPGAGTYPTLQPFQYLEEVHISHVGQPMLNFSFNSFHPDTRKPMHRECGFIRLKPDTNKVAFVSAQNTGVVEVEEGEVNGQELCIASHSIARISFAKEPHVEQITRKFRLNSEGKLEQTVSMATTTQPMTQHLHVTYKKVTP | -0.8956 |
| TFDP3 (protein, UniProt Q5H9I0 1-405, looked up) Transcription factor Dp …: MAKYVSLTEANEELKVLMDENQTSRPVAVHTSTVNPLGKQLLPKTFGQSSVNIDQQVVIGMPQRPAASNIPVVGSPNPPSTHFASQNQHSYSSPPWAGQHNRKGEKNGMGLCRLSMKVWETVQRKGTTSCQEVVGELVAKFRAASNHASPNESAYDVKNIKRRTYDALNVLMAMNIISREKKKIKWIGLTTNSAQNCQNLRVERQKRLERIKQKQSELQQLILQQIAFKNLVLRNQYVEEQVSQRPLPNSVIHVPFIIISSSKKTVINCSISDDKSEYLFKFNSSFEIHDDTEVLMWMGMTFGLESGSCSAEDLKMARNLVPKALEPYVTEMAQGTFGGVFTTAGSRSNGTWLSASDLTNIAIGMLATSSGGSQYSGSRVETPAVEEEEEEDNNDDDLSENDEDD | 0.6635 |
| THRA (protein, UniProt P10827 1-490, looked up) Thyroid hormone receptor alpha: MEQKPSKVECGSDPEENSARSPDGKRKRKNGQCSLKTSMSGYIPSYLDKDEQCVVCGDKATGYHYRCITCEGCKGFFRRTIQKNLHPTYSCKYDSCCVIDKITRNQCQLCRFKKCIAVGMAMDLVLDDSKRVAKRKLIEQNRERRRKEEMIRSLQQRPEPTPEEWDLIHIATEAHRSTNAQGSHWKQRRKFLPDDIGQSPIVSMPDGDKVDLEAFSEFTKIITPAITRVVDFAKKLPMFSELPCEDQIILLKGCCMEIMSLRAAVRYDPESDTLTLSGEMAVKREQLKNGGLGVVSDAIFELGKSLSAFNLDDTEVALLQAVLLMSTDRSGLLCVDKIEKSQEAYLLAFEHYVNHRKHNIPHFWPKLLMKEREVQSSILYKGAAAEGRPGGSLGVHPEGQQLLGMHVVQGPQVRQLEQQLGEAGSLQGPVLQHQSPKSPQQRLLELLHRSGILHARAVCGEDDSSEADSPSSSEEEPEVCEDLAGNAASP | -0.4575 |
